Results from paper PMC8207215.

Columns and labels:
[1] = target: recombinant human insulin-regulated aminopeptidase (IRAP), secreted soluble form (human) (UniProt Q9UIQ6); test: native gel or EMSA
[2] = target: recombinant human insulin-regulated aminopeptidase (IRAP), secreted soluble form (human) (UniProt Q9UIQ6); test: SEC
[3] = target: recombinant human insulin-regulated aminopeptidase (IRAP), secreted soluble form (human) (UniProt Q9UIQ6); test: enzyme inhibition assay

stoichiometry N [1] | stoichiometry N [2] | Ki [3] [nM] | Molecule
2 | 2 |  | recombinant human insulin-regulated aminopeptidase (IRAP), secreted soluble form (from UniProt Q9UIQ6 155-1025) (enzyme)
 |  | 98 | VYPWT [peptide inhibitor VYPWT]
